This is an account of results in doi:10.1101/296517.

Assay [1] addresses giantin (rat hepatocytes) (rat (endogenous in primary hepatocytes)). Description: Western blot of lysates. Background: A western blot detects proteins with antibodies after separation by electrophoresis.
For assay [2], the target named is giantin (human (endogenous in HeLa, LNCaP, PC-3, liver tissue)) (UniProt Q14789). Description: Western blot of lysates. The settings on record: remark: other sources report otherwise.

The stoichiometry N is a count of units in the complex or per binding partner.

“giantin (rat hepatocytes) (natural protein)”: the stoichiometry N in assay [1] is 2. For giantin, Q14789 1-3259, the stoichiometry N in assay [2] was determined as 2.
